Measurements published in publication PMC10403255, “Two RNA-binding proteins mediate the sorting of miR223 from mitochondria into exosomes”.

What was measured:
Assay in all cases: EMSA; 25 mM Tris pH 8.0, 100 mM KCl, 1.5 mM MgCl2, 0.2 mM EGTA, 0.05% Nonidet P-40, 1 mM DTT, 5% glycerol, 50 ug/ml heparin; 30 C 30 min, then ice 10 min; 1 nM RNA; 6% native PAGE in cold room
[1] = target: YBAP1 (UniProt Q07021 74-282); settings: protein: recombinant; tags: His6-MBP; chain copies: 3; label: 5'-IRD800CWN
[2] = target: T1, YBX1 (UniProt P67809 1-324); settings: protein: recombinant; tags: His6-MBP (N-terminal vector tag); label: 5'-IRD800CWN
[3] = target: YBX1(F85A) (UniProt P67809 1-324, F85A); settings: protein: recombinant; tags: His6-MBP; label: 5'-IRD800CWN
[4] = target: T1, YBX1; settings: protein: recombinant; tags: His6-MBP (N-terminal vector tag); label: 5'-IRD800CWN; remark: listed apart in the source
[5] = target: T1, YBX1; settings: protein: recombinant; tags: His6-MBP (N-terminal vector tag); label: 5'-IRD800CWN; remark: listed apart in the source

T1 sequence (P67809 whole entry): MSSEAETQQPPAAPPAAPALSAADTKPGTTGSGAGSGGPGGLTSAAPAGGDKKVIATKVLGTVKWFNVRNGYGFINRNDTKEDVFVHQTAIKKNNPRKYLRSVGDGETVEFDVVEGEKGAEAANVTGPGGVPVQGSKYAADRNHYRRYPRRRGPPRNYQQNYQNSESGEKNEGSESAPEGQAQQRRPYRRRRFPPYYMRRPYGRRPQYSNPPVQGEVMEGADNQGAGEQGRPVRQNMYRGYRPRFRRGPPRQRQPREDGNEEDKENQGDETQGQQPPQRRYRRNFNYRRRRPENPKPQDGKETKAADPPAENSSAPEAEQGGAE
YBAP1, sequence (Q07021 74-282): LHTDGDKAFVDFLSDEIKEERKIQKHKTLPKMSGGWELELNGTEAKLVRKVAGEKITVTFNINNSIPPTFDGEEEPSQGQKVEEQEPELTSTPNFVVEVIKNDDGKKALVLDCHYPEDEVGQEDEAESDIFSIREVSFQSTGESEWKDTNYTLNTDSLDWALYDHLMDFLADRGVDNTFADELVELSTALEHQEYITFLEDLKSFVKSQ
YBX1(F85A), sequence (P67809 whole entry F85A): as the sequence (P67809 whole entry) above, with F85A counted along it

UGUCAGUUUGUCAAAUACCCCA (ssRNA) [miR223 (hsa-miR-223-3p)] was tested, and the binding result [1] was “binds”, the Kd [2] was 4.2 nM and the binding result [3] was “no binding”.

With UGAUAUGUUUGAUAUAUUAGGU (ssRNA) [miR190 (hsa-miR-190-5p)] the binding result [1] was “no binding” and the binding signal [4] was roughly 140 fold weaker than miR223.

Binder UGUCAGUUUUGAUAUAUUAGGU (ssRNA) [miR190sort] has a binding signal [5] of roughly 8 fold stronger than miR190.

UGAGACAUUGUCAAAUACCCCA (ssRNA) [miR223mut] was tested, and the binding signal [5] was roughly 27 fold weaker than miR223.
